Measurements: patent US20070135335A1 (AUTOGEN RESEARCH, published 2007)

Experiments:
[1] = biological target: T1, GST-CLK1 (recombinant human CLK1 fused to glutathione S-transferase, pGEX4T-1) (human, UniProt P49759 1-484); test: SPR (Biacore J), Beacon immobilised on CM5 chip, GST-CLK as analyte
T1 construct: Expressed in E. coli BL21; whole entry named; not shown: glutathione S-transferase tag of expression vector pGEX4T-1
Experimental: (§1) FIG. 3 is a graphical representation showing the interaction between Beacon and human CLK1, 2 and 4. SPR analyses were performed as described in the Examples. Beacon immobilized on CM5 sensor chip generated 1800-2100 RU. Analyte samples injected and the heat treatments are as listed here:—
(§2) SPR analyses were performed with minor variations as described in Walder et al., 2002, supra using a Biacore J instrument (Biacore AB). Beacon was attached to a CM5 sensor chip at pH 5.5 by an amine coupling reaction. HBS-EP (10 mM Hepes pH 7.4/0.15 M NaCl/3 mM EDTA/0.005% Polysorbate 20) was used as running buffer. Flow cells 1 and 2 in the sensor chip were treated in the same manner except that ligand was absent in flow cell 2 which served as a reference cell. Binding experiments were performed in dual channel mode and the reference subtracted sensorgrams represented true binding patterns between ligand and analyte. Test samples diluted to 130 μl in running buffer were injected over a fixed duration of 4 min. For heat treatments, proteins were initially diluted to 20 μl in running buffer, incubated at 65 or 70° C. for 10 min, centrifuged for 30 sec, reconstituted to a final volume of 130 μl with running buffer and injected as usual. Between injections, chips were regenerated using 40 μl of 10 mM NaOH.

[2] = biological target: T2, GST-CLK4 (recombinant human CLK4 fused to glutathione S-transferase, pGEX4T-1) (human, UniProt Q9HAZ1 1-481); test: as above
T2 construct: Expressed in E. coli BL21; whole entry named; not shown: glutathione S-transferase tag of expression vector pGEX4T-1
T2 sequence (Q9HAZ1 whole entry, the tested form may be a part): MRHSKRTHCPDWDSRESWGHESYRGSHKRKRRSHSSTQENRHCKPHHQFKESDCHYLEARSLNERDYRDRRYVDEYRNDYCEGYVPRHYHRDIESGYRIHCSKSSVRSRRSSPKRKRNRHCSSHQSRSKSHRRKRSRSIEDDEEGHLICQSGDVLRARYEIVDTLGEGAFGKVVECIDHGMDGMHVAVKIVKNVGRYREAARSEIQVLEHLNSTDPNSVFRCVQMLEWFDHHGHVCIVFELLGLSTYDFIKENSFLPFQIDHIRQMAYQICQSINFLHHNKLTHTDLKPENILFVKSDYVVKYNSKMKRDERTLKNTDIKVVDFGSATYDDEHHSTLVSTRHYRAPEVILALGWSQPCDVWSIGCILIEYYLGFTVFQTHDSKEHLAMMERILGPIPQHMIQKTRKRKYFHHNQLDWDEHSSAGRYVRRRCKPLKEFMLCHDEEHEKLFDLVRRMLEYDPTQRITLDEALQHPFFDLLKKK
Experimental: as §1, §2

[3] = biological target: T3, GST-CLK2 (recombinant human CLK2 fused to glutathione S-transferase, pGEX4T-1) (human, UniProt P49760 1-499); test: as above
T3 construct: Expressed in E. coli BL21; whole entry named; not shown: glutathione S-transferase tag of expression vector pGEX4T-1
T3 sequence (P49760 whole entry, the tested form may be a part): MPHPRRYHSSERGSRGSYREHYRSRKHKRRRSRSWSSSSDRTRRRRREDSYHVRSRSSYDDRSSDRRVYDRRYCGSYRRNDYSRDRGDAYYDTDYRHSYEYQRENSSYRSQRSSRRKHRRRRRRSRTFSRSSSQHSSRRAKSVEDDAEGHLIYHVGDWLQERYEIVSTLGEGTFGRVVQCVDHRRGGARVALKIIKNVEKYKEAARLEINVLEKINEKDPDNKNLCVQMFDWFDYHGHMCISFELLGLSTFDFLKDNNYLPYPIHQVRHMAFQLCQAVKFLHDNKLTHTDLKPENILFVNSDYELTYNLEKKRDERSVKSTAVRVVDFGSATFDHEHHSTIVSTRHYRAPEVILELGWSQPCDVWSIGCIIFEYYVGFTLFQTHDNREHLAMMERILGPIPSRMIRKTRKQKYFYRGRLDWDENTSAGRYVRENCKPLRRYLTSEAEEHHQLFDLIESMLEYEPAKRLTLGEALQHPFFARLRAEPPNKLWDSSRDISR
Experimental: as §1, §2

bovine serum albumin = biological target: T4, bovine serum albumin (bovine, UniProt P02769 25-607); test: SPR (Biacore J), Beacon immobilised on CM5 chip
T4 construct: Unrelated control protein in SPR
T4 sequence (P02769 25-607 limits assumed): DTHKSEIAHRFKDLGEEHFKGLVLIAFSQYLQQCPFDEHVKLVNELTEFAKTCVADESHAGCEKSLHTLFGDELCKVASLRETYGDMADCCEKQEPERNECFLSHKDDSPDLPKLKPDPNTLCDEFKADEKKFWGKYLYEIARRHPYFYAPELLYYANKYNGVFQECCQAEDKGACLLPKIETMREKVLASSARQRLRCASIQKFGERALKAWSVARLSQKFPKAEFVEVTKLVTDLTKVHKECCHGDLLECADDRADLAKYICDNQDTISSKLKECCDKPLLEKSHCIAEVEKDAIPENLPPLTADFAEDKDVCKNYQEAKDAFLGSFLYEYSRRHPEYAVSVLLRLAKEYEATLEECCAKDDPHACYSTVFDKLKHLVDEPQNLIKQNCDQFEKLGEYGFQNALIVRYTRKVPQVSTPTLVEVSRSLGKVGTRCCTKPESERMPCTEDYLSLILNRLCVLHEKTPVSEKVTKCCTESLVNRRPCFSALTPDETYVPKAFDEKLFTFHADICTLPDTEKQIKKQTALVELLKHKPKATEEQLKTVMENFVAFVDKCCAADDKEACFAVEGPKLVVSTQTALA
Experimental: as §2

[4] = biological target: the molecule itself; test: SPR (Biacore J), Beacon immobilised on CM5 chip
Experimental: as §2

maltose binding protein = maltose binding protein (UniProt P0AEX9 27-396 = MBP); test: SPR (Biacore J), Beacon immobilised on CM5 chip
Experimental: as §2

[5] = biological target: T5, GST (recombinant glutathione S-transferase, pGEX2T) (UniProt P08515 1-218 = GST); test: SPR (Biacore J), Beacon immobilised on CM5 chip
T5 construct: Control protein in SPR
T5 sequence (P08515 whole entry): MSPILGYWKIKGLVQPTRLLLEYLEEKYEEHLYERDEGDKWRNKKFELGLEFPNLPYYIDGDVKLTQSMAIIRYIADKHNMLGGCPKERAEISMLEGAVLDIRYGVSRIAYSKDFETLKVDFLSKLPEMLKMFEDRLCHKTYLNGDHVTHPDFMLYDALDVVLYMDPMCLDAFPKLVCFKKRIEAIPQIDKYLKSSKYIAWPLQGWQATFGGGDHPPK
Experimental: as §2

T1 sequence (P49759 whole entry, the tested form may be a part): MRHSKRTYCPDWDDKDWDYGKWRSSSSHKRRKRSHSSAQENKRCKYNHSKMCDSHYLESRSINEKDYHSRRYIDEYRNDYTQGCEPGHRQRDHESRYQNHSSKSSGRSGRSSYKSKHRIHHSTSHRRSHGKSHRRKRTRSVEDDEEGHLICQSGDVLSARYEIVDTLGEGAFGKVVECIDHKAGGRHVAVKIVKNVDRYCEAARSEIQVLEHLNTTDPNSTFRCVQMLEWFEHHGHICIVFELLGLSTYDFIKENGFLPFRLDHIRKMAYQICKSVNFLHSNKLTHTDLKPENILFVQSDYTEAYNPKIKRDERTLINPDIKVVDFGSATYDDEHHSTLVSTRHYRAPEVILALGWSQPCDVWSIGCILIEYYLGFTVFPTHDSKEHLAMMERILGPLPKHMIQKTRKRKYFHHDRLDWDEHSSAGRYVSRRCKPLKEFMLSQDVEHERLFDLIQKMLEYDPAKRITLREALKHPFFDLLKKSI

binding result [1]: binds
binding result [2]: binds
binding result [3]: binds
binding result (bovine serum albumin): no binding
binding result (maltose binding protein): no binding
binding result [5]: no binding
B1: Beacon (recombinant, expressed as GST-Beacon in E. coli, GST tag cleaved off with thrombin) (ligand)
chain: MIEVVCNDRLGKKVRVKCNTDDTIGDLKKLIAAQTGTRWNKIVLKKWYTIFKDHVSLGDYEIHDGMNLELYYQ
notes: Immobilised on a CM5 chip by amine coupling (SPR); also injected as analyte over itself
binding result [4]: no binding
